Test results from paper PMC6926487.

Target: GST-Rac1A, active (GTPγs-bound), P34144
Assay: pull-down (GST-Rac1A), immunoblot quantification
Details: chain shown with the change, mean ± SEM, n = 3, parent: 1.9% ± 0.9% SEM

B1: GFP-WASP (Dictyostelium Wiskott-Aldrich syndrome protein, wild type) I173A; F179A (protein)
chain: MGSPTISDQEKSQVAFIAGSSSDIHSTTVARLYEGRQGRWEFMAVGIVSVVSNRVDKTNYIKVFDLKANYRIIFEQEIYDTFEFQKQRDFFFAFEGDSCVYGLSFADVTEAAEFYGQLLNCKQGNIGKTAAINPNTSSTKITASTPAPKVEKKKEKKGFMSKFFSSEEKDLEASAPTNAKHESHIGWDPENGFDIKNIPPDWRKLFQSAGIKKSELKNAETAQFIVNIIGEQMVGGSAPPPTQPGRSAPPAPPSSNQPGRSAPPPPPSVGKSAPPPPPPSHKTPAAPPSGGGAPPPPPPPPPPSSGPPPPPPPMASAPPSSGGGGASGGGRNDLLASIRSGASLKAVDKTNPLPDIQSLGNEGSRSLADTLAAAMANRRGGMREDDEEDDDDDDEWSDY
Binder B1 has a response (% binding to GTPγS-loaded Rac1A) of 0.1.
